What all share (experiment): fluorescence quenching
The target in data set [1] is T1, RAD51 F86L (Homo sapiens, UniProt Q06609 1-339, F86L).
In data set [2] the target is T2, RAD51 E258A (Homo sapiens, UniProt Q06609 1-339, E258A).
The target in data set [3] is T3, RAD51 WT (Homo sapiens, UniProt Q06609 1-339).
Data set [4] addresses T1, RAD51 F86L. The source holds these as a separate data set.
The target of data set [5] is T2, RAD51 E258A. The source holds these as a separate data set.
The target in data set [6] is T3, RAD51 WT. This is another data set of the same source.

Our source for the Kd values is PMC5699509.

Read-outs that look alike come from different tables or passages of the source.

T2 sequence (Q06609 whole entry E258A): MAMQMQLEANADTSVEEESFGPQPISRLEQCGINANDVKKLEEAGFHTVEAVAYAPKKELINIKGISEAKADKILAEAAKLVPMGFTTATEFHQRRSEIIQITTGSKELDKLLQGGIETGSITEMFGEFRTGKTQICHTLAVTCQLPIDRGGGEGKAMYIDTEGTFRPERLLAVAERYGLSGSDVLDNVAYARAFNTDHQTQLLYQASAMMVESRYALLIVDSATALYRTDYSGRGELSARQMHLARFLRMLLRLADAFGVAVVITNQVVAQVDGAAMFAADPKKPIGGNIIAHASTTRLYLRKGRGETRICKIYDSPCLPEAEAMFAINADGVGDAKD
T3 sequence (Q06609 whole entry): as the sequence (Q06609 whole entry E258A) above, with A258E counted along it
T1 sequence (Q06609 whole entry F86L): as the sequence (Q06609 whole entry E258A) above, with F86L, A258E counted along it

B1: oligo 9/10 dsDNA (AF546) (dsDNA)
DNA 1: AAAAAAAAAAAAAAAAAAAAAAAAA
DNA 2: TTTTTTTTTTTTTTTTTTTTTTTTT
What is called Kd is the concentration at which binding is half-saturated. A lower Kd goes with a tighter complex. As to B1, the Kd was determined as 1700 ± 100 nM with RAD51 F86L [1]; 2100 ± 100 nM with RAD51 E258A [2]; 800 ± 100 nM with RAD51 WT [3]; 1800 ± 200 nM in the data set with RAD51 F86L [4]; 1300 ± 100 nM in the data set with RAD51 E258A [5]; 700 ± 100 nM with RAD51 WT [6].
As to AAAAAAAAAAAAAAAAAAAAAAAAA (ssDNA) [oligo 9 ssDNA (AF546 poly-dA)], the dissociation constant Kd worked out at 1900 ± 200 nM with RAD51 WT [3], 4900 ± 400 nM in the data set with RAD51 F86L [4], 3100 ± 300 nM in the data set with RAD51 E258A [5] and 600 ± 100 nM in the data set with RAD51 WT [6].
